Laboratory results taken from patent US6403087.

Tests used:
[1] = molecular target: murine surface LT ligand on PMA-activated TIMI-4 cells (mouse) (UniProt P09225); test: FACS on TIMI-4 cells; mAb at 1.0 µg/ml preincubated, washed, then 1 µg/ml mLT-β-R-Fc
[2] = molecular target: murine surface LT ligand on PMA-activated TIMI-4 cells (mouse) (UniProt P09225); test: FACS on TIMI-4 cells; mAb at 3.0 µg/ml preincubated, washed, then 1 µg/ml mLT-β-R-Fc
[3] = molecular target: murine surface LT ligand on PMA-activated TIMI-4 cells (mouse) (UniProt P09225); test: FACS on TIMI-4 cells; mAb at 0.3 µg/ml preincubated, washed, then 1 µg/ml mLT-β-R-Fc
[4] = molecular target: murine surface LT ligand on PMA-activated TIMI-4 cells (mouse) (UniProt P09225); test: FACS on TIMI-4 cells; mAb at 0.1 µg/ml preincubated, washed, then 1 µg/ml mLT-β-R-Fc
[5] = molecular target: murine surface LT ligand on PMA-activated TIMI-4 cells (mouse) (UniProt P09225); test: FACS on TIMI-4 cells; mAb at 0.03 µg/ml preincubated, washed, then 1 µg/ml mLT-β-R-Fc
[6] = molecular target: murine surface LT ligand on PMA-activated TIMI-4 cells (mouse) (UniProt P09225); test: FACS on TIMI-4 cells; mAb at 100.0 µg/ml preincubated, washed, then 1 µg/ml mLT-β-R-Fc
[7] = molecular target: murine surface LT ligand on PMA-activated TIMI-4 cells (mouse) (UniProt P09225); test: FACS on TIMI-4 cells; mAb at 30.0 µg/ml preincubated, washed, then 1 µg/ml mLT-β-R-Fc
[8] = molecular target: murine surface LT ligand on PMA-activated TIMI-4 cells (mouse) (UniProt P09225); test: FACS on TIMI-4 cells; mAb at 0.01 µg/ml preincubated, washed, then 1 µg/ml mLT-β-R-Fc
[9] = molecular target: murine surface LT ligand on PMA-activated TIMI-4 cells (mouse) (UniProt P09225); test: FACS on TIMI-4 cells; mAb at 10.0 µg/ml preincubated, washed, then 1 µg/ml mLT-β-R-Fc
[10] = molecular target: surface TNF receptors on HT29 cells; test: cell-based or functional assay

Chain of murine surface LT ligand on PMA-activated TIMI-4 cells (mouse) (P09225 34-202, chain 1 of 2): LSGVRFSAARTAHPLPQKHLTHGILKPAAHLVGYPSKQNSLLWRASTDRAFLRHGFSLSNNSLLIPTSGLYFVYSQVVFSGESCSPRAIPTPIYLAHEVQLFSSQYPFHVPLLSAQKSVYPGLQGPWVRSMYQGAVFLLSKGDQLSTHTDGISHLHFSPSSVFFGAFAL
Chain of murine surface LT ligand on PMA-activated TIMI-4 cells (mouse) (P41155 whole entry, chain 2 of 2, further chain): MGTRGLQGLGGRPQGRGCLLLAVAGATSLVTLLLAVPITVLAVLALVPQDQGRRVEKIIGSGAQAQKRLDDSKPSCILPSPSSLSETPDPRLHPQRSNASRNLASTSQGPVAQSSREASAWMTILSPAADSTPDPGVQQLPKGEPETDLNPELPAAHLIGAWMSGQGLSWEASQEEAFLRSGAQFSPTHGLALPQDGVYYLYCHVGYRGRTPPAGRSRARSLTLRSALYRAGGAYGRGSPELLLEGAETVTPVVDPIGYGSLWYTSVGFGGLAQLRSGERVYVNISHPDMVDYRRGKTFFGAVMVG
Chain of hTNF (P01375 77-233 limits assumed): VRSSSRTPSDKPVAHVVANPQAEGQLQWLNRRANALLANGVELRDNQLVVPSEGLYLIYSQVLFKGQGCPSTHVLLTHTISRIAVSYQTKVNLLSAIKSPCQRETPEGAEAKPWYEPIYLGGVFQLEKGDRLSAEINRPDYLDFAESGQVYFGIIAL

Question: hamster anti-mLT-α mAb AF.B3 (antibody) was tested. Which % Inh (Percent Inhibition) of mLT-β-R-Fc binding [1] did it give?
Answer: 0%

Question: And the MFCI (Mean Fluorescence Channel No.) of bound mLT-β-R-Fc [1]?
Answer: 89 channel no.

Question: And the % Inh (Percent Inhibition) of mLT-β-R-Fc binding [2]?
Answer: 0%

Question: And the MFCI (Mean Fluorescence Channel No.) of bound mLT-β-R-Fc [2]?
Answer: 88 channel no.

Question: And the % Inh (Percent Inhibition) of mLT-β-R-Fc binding [3]?
Answer: 2%

Question: And the MFCI (Mean Fluorescence Channel No.) of bound mLT-β-R-Fc [3]?
Answer: 84 channel no.

Question: And the % Inh (Percent Inhibition) of mLT-β-R-Fc binding [4]?
Answer: 0%

Question: And the MFCI (Mean Fluorescence Channel No.) of bound mLT-β-R-Fc [4]?
Answer: 86 channel no.

Question: What about the % Inh (Percent Inhibition) of mLT-β-R-Fc binding [5] of the same substance?
Answer: 0%

Question: And the MFCI (Mean Fluorescence Channel No.) of bound mLT-β-R-Fc [5]?
Answer: 86 channel no.

Question: And the % Inh (Percent Inhibition) of mLT-β-R-Fc binding [6]?
Answer: 0%

Question: And the MFCI (Mean Fluorescence Channel No.) of bound mLT-β-R-Fc [6]?
Answer: 92 channel no.

Question: What about the % Inh (Percent Inhibition) of mLT-β-R-Fc binding [7] of the same substance?
Answer: 0%

Question: What about the MFCI (Mean Fluorescence Channel No.) of bound mLT-β-R-Fc [7] of the same substance?
Answer: 94 channel no.

Question: And the % Inh (Percent Inhibition) of mLT-β-R-Fc binding [8]?
Answer: 2%

Question: What about the MFCI (Mean Fluorescence Channel No.) of bound mLT-β-R-Fc [8] of the same substance?
Answer: 84 channel no.

Question: And the % Inh (Percent Inhibition) of mLT-β-R-Fc binding [9]?
Answer: 0%

Question: What about the MFCI (Mean Fluorescence Channel No.) of bound mLT-β-R-Fc [9] of the same substance?
Answer: 95 channel no.

Question: Which Concentration of Cytotoxic Agent (ng/ml) Resulting in 50% Growth Inhibition of HT29 cells, in the presence of 5 µg/ml hu-IgG control [10] does the source give for “hLT-α (from UniProt P01374 35-205) (ligand)” here?
Answer: 3 ng/mL

Question: For “hTNF (from UniProt P01375 77-233) (ligand)”, which Concentration of Cytotoxic Agent (ng/ml) Resulting in 50% Growth Inhibition of HT29 cells, in the presence of 5 µg/ml hu-IgG control [10] is on record?
Answer: 0.08 ng/mL

Question: How did the % Inh (Percent Inhibition) of mLT-β-R-Fc binding [1] turn out when “hamster anti-mouse LT-α/β mAb BB.F6 (antibody)” was run?
Answer: 71%

Question: And the MFCI (Mean Fluorescence Channel No.) of bound mLT-β-R-Fc [1]?
Answer: 29 channel no.

Question: And the % Inh (Percent Inhibition) of mLT-β-R-Fc binding [2]?
Answer: 86%

Question: And the MFCI (Mean Fluorescence Channel No.) of bound mLT-β-R-Fc [2]?
Answer: 17 channel no.

Question: What about the % Inh (Percent Inhibition) of mLT-β-R-Fc binding [3] of the same substance?
Answer: 62%

Question: And the MFCI (Mean Fluorescence Channel No.) of bound mLT-β-R-Fc [3]?
Answer: 36 channel no.

Question: What about the % Inh (Percent Inhibition) of mLT-β-R-Fc binding [4] of the same substance?
Answer: 44%

Question: What about the MFCI (Mean Fluorescence Channel No.) of bound mLT-β-R-Fc [4] of the same substance?
Answer: 51 channel no.

Question: And the % Inh (Percent Inhibition) of mLT-β-R-Fc binding [5]?
Answer: 23%

Question: What about the MFCI (Mean Fluorescence Channel No.) of bound mLT-β-R-Fc [5] of the same substance?
Answer: 67 channel no.

Question: What about the % Inh (Percent Inhibition) of mLT-β-R-Fc binding [6] of the same substance?
Answer: 98%

Question: What about the MFCI (Mean Fluorescence Channel No.) of bound mLT-β-R-Fc [6] of the same substance?
Answer: 8 channel no.

Question: And the % Inh (Percent Inhibition) of mLT-β-R-Fc binding [7]?
Answer: 95%

Question: And the MFCI (Mean Fluorescence Channel No.) of bound mLT-β-R-Fc [7]?
Answer: 10 channel no.

Question: And the % Inh (Percent Inhibition) of mLT-β-R-Fc binding [8]?
Answer: 18%

Question: What about the MFCI (Mean Fluorescence Channel No.) of bound mLT-β-R-Fc [8] of the same substance?
Answer: 71 channel no.

Question: What about the % Inh (Percent Inhibition) of mLT-β-R-Fc binding [9] of the same substance?
Answer: 94%

Question: And the MFCI (Mean Fluorescence Channel No.) of bound mLT-β-R-Fc [9]?
Answer: 11 channel no.
